Data set [1] deals with T1, CqJHE (Culex quinquefasciatus, UniProt R4HZP1).
T1 construct: gene jhe; full-length cDNA (ORF 1746 nt) from 4th instar larvae, predicted 19-residue signal peptide removed on secretion, mature 563 residues, 63,430 Da; recombinant baculovirus AcCqJHE in High Five cells, secreted
T1 sequence (R4HZP1 20-582): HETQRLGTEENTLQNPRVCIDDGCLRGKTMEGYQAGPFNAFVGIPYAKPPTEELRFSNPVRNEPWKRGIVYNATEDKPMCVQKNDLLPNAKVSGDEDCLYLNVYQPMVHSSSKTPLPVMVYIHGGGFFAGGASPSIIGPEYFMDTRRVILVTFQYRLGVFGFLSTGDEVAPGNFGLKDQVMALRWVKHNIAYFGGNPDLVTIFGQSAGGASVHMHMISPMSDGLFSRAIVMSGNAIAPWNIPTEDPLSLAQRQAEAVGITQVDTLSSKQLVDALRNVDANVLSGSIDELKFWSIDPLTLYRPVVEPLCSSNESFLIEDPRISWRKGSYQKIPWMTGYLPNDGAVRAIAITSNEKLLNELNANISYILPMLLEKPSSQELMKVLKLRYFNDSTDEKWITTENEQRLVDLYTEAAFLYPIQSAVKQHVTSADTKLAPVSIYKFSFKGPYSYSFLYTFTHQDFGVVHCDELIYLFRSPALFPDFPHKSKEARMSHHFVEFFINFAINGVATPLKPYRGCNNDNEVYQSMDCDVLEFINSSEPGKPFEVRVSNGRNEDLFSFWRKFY
In words: competition in JH III partition assay. It is filed as biochemical.

The target in data set [2] is T1, CqJHE. In words: JH III partition assay (radiolabelled JH III), […] min preincubation. In kind it is biochemical.
Substrate in data set [3]: COC(=O)/C=C(\C)CC/C=C(\C)CC[C@H]1OC1(C)C
Nature of the data set: JH III partition assay (radiolabelled JH III). It is filed as biochemical, Culex quinquefasciatus. The note with it: 50 mM sodium phosphate pH 7.4, 30°C. The text has this: JH III partition assay (radiolabelled JH III) on CqJHE

Substrate in data set [4]: CC(=O)Oc1ccc([N+](=O)[O-])cc1
In words: spectrophotometric, OD405. In kind it is biochemical, Culex quinquefasciatus. The note with it: 50 mM sodium phosphate pH 7.4, 30°C. The text has this:
spectrophotometric, OD405 on CqJHE

Substrate in data set [5]: CC(=O)Oc1cccc2ccccc12
In words: spectrophotometric, OD450. In kind it is biochemical, Culex quinquefasciatus. Conditions: glycine-NaOH pH 9.0, 30°C. The text has this:
spectrophotometric, OD450 on CqJHE

Regarding `C#CCOC(=O)/C=C(C)/C=C/CC(C)CCCC(C)C` (stereo not drawn) [kinoprene], at CqJHE [1], 5 µM produced 50% inhibition.

`CCOC(=O)/C=C(C)/C=C/C[C@@H](C)CCCC(C)C` [hydroprene] gave an inhibition at 5 µM at CqJHE [1] of 40%.

The molecule `CCCCCCCCSCC(=O)C(F)(F)F` [OTFP, 3-octylthio-1,1,1-trifluoropropan-2-one] came in with a half-inhibitory concentration (IC50) against CqJHE [2] of 0.23 ± 0.05 nM.

B1: CqJHE (Culex quinquefasciatus) (protein)
chain: HETQRLGTEENTLQNPRVCIDDGCLRGKTMEGYQAGPFNAFVGIPYAKPPTEELRFSNPVRNEPWKRGIVYNATEDKPMCVQKNDLLPNAKVSGDEDCLYLNVYQPMVHSSSKTPLPVMVYIHGGGFFAGGASPSIIGPEYFMDTRRVILVTFQYRLGVFGFLSTGDEVAPGNFGLKDQVMALRWVKHNIAYFGGNPDLVTIFGQSAGGASVHMHMISPMSDGLFSRAIVMSGNAIAPWNIPTEDPLSLAQRQAEAVGITQVDTLSSKQLVDALRNVDANVLSGSIDELKFWSIDPLTLYRPVVEPLCSSNESFLIEDPRISWRKGSYQKIPWMTGYLPNDGAVRAIAITSNEKLLNELNANISYILPMLLEKPSSQELMKVLKLRYFNDSTDEKWITTENEQRLVDLYTEAAFLYPIQSAVKQHVTSADTKLAPVSIYKFSFKGPYSYSFLYTFTHQDFGVVHCDELIYLFRSPALFPDFPHKSKEARMSHHFVEFFINFAINGVATPLKPYRGCNNDNEVYQSMDCDVLEFINSSEPGKPFEVRVSNGRNEDLFSFWRKFY
notes: full-length cDNA (ORF 1746 nt) from 4th instar larvae, predicted 19-residue signal peptide removed on secretion, mature 563 residues, 63,430 Da; recombinant baculovirus AcCqJHE in High Five cells, secreted
Turning to B1, in data set [3], the Michaelis-Menten constant (Km) was 0.13 ± 0.02 µM, the maximal velocity (Vmax) was 1.2 µmol/min/mg, the catalytic constant (kcat) was determined as 1.3 s⁻¹ and the kcat/Km stood at 1e+07 M⁻¹ s⁻¹. Moreover, in data set [4], the Km is 340 ± 17 µM, the maximal velocity (Vmax) amounted to 120 µmol/min/mg, the kcat was found to be 130 s⁻¹ and the catalytic efficiency (kcat/Km) amounted to 380000 M⁻¹ s⁻¹. In addition, in data set [5], the Km was 2960 ± 420 µM, the maximal velocity (Vmax) was determined as 20 µmol/min/mg, the turnover number (kcat) was determined as 21 s⁻¹ and the kcat/Km was found to be 7100 M⁻¹ s⁻¹.

For the origin of these results see paper PMC3235118, “Juvenile Hormone (JH) Esterase of the Mosquito Culex quinquefasciatus Is Not a Target of the JH Analog Insecticide Methoprene” (PLoS ONE, 2011).
